Among the data in article PMC10034468, “The Pseudomonas aeruginosa PAO1 metallo flavoprotein D-2-hydroxyglutarate dehydrogenase requires Zn^2+ for substrate orientation and activation” (The Journal of Biological Chemistry, 2023) are Km, kcat and kcat/Km values, retold here.

Substrate in data set [1]: O=C(O)CC[C@@H](O)C(=O)O
The data set is described as follows: steady-state oxygen consumption, Clark-type electrode. It is filed as biochemical, Pseudomonas aeruginosa. As to conditions: E-Zn2+, PMS as co-substrate, 25 mM NaPO4, pH 7.4, 25 °C. From the text: (§1) steady-state oxygen consumption, Clark-type electrode on PaD2HGDH (E-Zn^2+ and E-Co^2+)

Substrate in data set [2]: O=C(O)C[C@@H](O)C(=O)O
The description is as above. In kind it is biochemical, Pseudomonas aeruginosa. The conditions noted are these: E-Zn2+, PMS as co-substrate, 25 mM NaPO4, pH 7.4, 25 °C.
Source text: as §1

The term Km denotes the substrate concentration at which the rate is half of its maximum. A word on the kcat: it is the number of substrate molecules converted per active site and unit of time at saturation. Usually kcat/Km stands for the turnover number divided by the Michaelis constant.

B1: PaD2HGDH (E-Zn^2+ and E-Co^2+) (Pseudomonas aeruginosa PAO1) (protein)
chain: MTREALIESLKPLVEPGKLLDDAASLDAYGKDWTKHFAPAPLAIVFPKSVEQVQAIVRWANQHKVGLVPSGGRTGLSAAAVAANGEVVVAFDYMNRILDFNAFDRTVVCQPGVVTKQLQTFAEENGLYYPVDFASSGSSQIGGNIGTNAGGIKVIRYGMTRNWVAGMKVVTGKGDLLELNKDLIKNATGYDMRQLFIGAEGTLGFVVEATMRLERTPKNLTAMVLGTPDFDSIMPVLHAFQSKLDLTAFEFFSDKALAKVLARGDVPRAFETDCPFYALLEFEATTEEVANEALATFEHCVEQGWVLDGVMSQSEQQLQNLWKLREYISETISHWTPYKNDISVTVSRVPAFLKDIDAIVEANYPDFEVVWFGHIGDGNLHLNILKPENLGKDEFFAKCATVNKWVFETVEKYNGSISAEHGVGMTKRDYLTYTRSETEIAYMKALKAVFDPNGIMNPGKIFAE
notes: FAD enzyme
With B1, in data set [1], the Michaelis-Menten constant (Km) was 0.08 ± 0.01 mM, the kcat is 26 ± 1 s⁻¹ and the catalytic efficiency (kcat/Km) turned out to be 330000 ± 43000 M⁻¹ s⁻¹. In data set [2], the Km stood at 6.0 ± 0.6 mM, the kcat came to 52 ± 2 s⁻¹ and the kcat/Km is 9000 ± 900 M⁻¹ s⁻¹.
